Measurements published in PMC5636754, “Structural and biochemical characterization of DAXX-ATRX interaction” (Protein & Cell, 2017).

T1: DAXX interaction domain of ATRX (DID_(ATRX)), aa 1,189-1,326 (human, UniProt P46100 1189-1326)
T1 construct: also called full length DID_(ATRX); ATRX_(1,189–1,326)
T1 sequence (looked up): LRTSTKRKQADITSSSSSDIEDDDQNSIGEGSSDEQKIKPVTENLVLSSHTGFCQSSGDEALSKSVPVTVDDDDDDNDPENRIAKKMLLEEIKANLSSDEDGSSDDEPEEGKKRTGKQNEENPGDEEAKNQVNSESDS

T2: DAXX helical bundle (DHB) domain of death domain-associated protein (DAXX), aa 55-144 (UniProt Q9UER7 55-144)
T2 chain: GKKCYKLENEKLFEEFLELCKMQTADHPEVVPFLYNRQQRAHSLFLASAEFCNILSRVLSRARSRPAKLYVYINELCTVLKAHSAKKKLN

B1: DAXX helical bundle (DHB) domain of death domain-associated protein (DAXX), aa 55-144 (domain or fragment, UniProt Q9UER7 55-144, looked up)
chain: GKKCYKLENEKLFEEFLELCKMQTADHPEVVPFLYNRQQRAHSLFLASAEFCNILSRVLSRARSRPAKLYVYINELCTVLKAHSAKKKLN
notes: Death domain-associated protein (DAXX), DHB domain, residues 55-144; they may stand in the supplementary file; also called DHB_(DAXX); DBH_(DAXX)

Assays:
[1] = molecular target: T1, DAXX interaction domain of ATRX …; assay: ITC; DHB_(DAXX) titrated with ATRX fragments or peptides; settings: both partners purified
[2] = molecular target: B1; assay: as above; settings: both partners purified
[3] = molecular target: T2, DAXX helical bundle (DHB) domain of …; assay: ITC

Row | Binder | Kd [1] | Kd [2] | binding result [2] | Kd [3]
1 | B1 | 4.5 µM |  |  | 
2 | NDPENRIAKKMLLEEIKANLS (peptide, UniProt P46100 1265-1285, looked up, the wild type is called 'wild type peptide control'; also called WT) [ATRX_(1,265–1,285), α-helix frame only (αDID), wild type peptide] |  | 1 µM |  | 
3 | NDPENRIAKKMLLEQIKANLS (peptide, UniProt P46100 1265-1285, looked up, source: synthetic peptide) [ATRX_(1,265–1,285) E1279Q mutant peptide] |  |  | binds | 3.2 µM
4 | NDPENRIAAKMLLEEIKANLS (peptide, UniProt P46100 1265-1285, looked up, source: synthetic peptide) [ATRX_(1,265–1,285) K1273A mutant peptide] |  |  | binds | 2.3 µM
5 | NDPQNRIAKKMLLEEIKANLS (peptide, UniProt P46100 1265-1285, looked up, source: synthetic peptide) [ATRX_(1,265–1,285) E1268Q mutant peptide] |  |  | binds | 5.6 µM
6 | NNPENRIAKKMLLEEIKANLS (peptide, UniProt P46100 1265-1285, looked up, source: synthetic peptide) [ATRX_(1,265–1,285) D1266N mutant peptide] |  |  | binds | 7 µM
7 | NDPENRIAKKMLAEEIKANLS (peptide, UniProt P46100 1265-1285, looked up, source: synthetic peptide) [ATRX_(1,265–1,285) L1277A mutant peptide] |  | 80.6 µM |  | 
8 | NDPENRIAKKMLLEEAKANLS (peptide, UniProt P46100 1265-1285, looked up, source: synthetic peptide) [ATRX_(1,265–1,285) I1280A mutant peptide] |  | 10.9 µM |  | 
9 | DDDDDDNDPENRIAKKMLLEEIKANLS (peptide, UniProt P46100 1259-1285, looked up, begins with the polyD loop 1259-DDDDDD-1264) [ATRX_(1,259–1,285), minimum ATRX motif of 27 residues] |  | 0.07 µM |  | 
10 | SSGDEALSKSVPVTVDDDDDDNDPENRIAKKMLLEEIKANLS (domain or fragment, human, UniProt P46100 1244-1285, looked up, source: co-expressed with DHB_(DAXX) and purified for the crystal) [ATRX_(1,244–1,285), 42-residue loop-helix segment of DID_(ATRX)] |  | 0.07 µM |  | 
